# Article PMC6534540
# Molecular target: N-term biotinylated candidalysin (Candida albicans)
# Assay: SPR; Biacore T100; N-term biotinylated candidalysin captured (up to 1000 RU) on neutravidin coupled to a CM5 chip, free sites blocked with PEG-biotin; EGFR domains injected at 250, 500, 1000 and 2000 nM at 10 µL/min; HBS-EP buffer (10 mM HEPES pH 7.4, 150 mM NaCl, 3 mM EDTA, 0.005% Surfactant P20); 25 °C; neutravidin-only reference cell
# N-term biotinylated candidalysin (Candida albicans), sequence (Q07730 62-92): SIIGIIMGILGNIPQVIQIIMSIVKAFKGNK
substance,measurement,value
EGFR transmembrane portion (domain or fragment),SPR signal response,< 50 RU
